Results on 3 substances are retold here after patent publication US20230045284A1.

The test concerns the target Total cellular Ras (all isoforms KRas, HRas and NRas, endogenous, in human cell lines). In words: cell-based or functional assay.

As for “RRSP*-DTB (catalytically inactive RRSP H4030A fused to DTB) (from UniProt P00588 186-535) (enzyme)”, the dose needed for depletion of RAS in HCT-116 spheroids relative to RRSP-DTB came out at 10 fold.

Take “RRSP-CPD-DTa-DTB (RRSP fused to the MARTX cysteine protease domain and detoxified diphtheria toxin) (from UniProt P00588 33-567) (enzyme)”: the concentration giving partial RAS inactivation, western blot, HCT-116 cells was determined as 100 pM.

As for “RRSP-DTB (RRSP fused via a (G4S)2 linker to diphtheria toxin residues 186-535, DTT-DTR) (from UniProt P00588 186-535) (enzyme)”, the IC50 of cell viability after 72 hours, HCT-116 cells amounted to 1.5 pM; the IC50 of cell viability at 72 h, MDA-MB-436 cells was found to be 5 pM; the IC50 of cell viability, MDA-MB-231 cells, 72 hours was determined as 12 pM; the IC50 of viability of HCT-116 spheroids after 7 days amounted to 85 pM. Moreover, the concentration giving complete cleavage of RAS after 1 h, western blot, MDA-MB-436 cells was found to be 10 nM.
